Assay [1] addresses T1, 原核表达的重组人Calcitonin蛋白 (PET28a-Calcitonin, 大肠杆菌BL21表达, Ni-NTA纯化) (human) (UniProt P01258).
T1 sequence (looked up): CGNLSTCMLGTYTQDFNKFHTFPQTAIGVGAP
Kind of assay: ELISA titer, as told in the summary of results.

The target of assay [2] is T1, 原核表达的重组人Calcitonin蛋白 (PET28a-Calcitonin, 大肠杆菌BL21表达, Ni-NTA纯化) (human). Kind of assay: direct ELISA, purified antibody diluted 1:200 to 1:12800 on plates coated with purified Calcitonin protein (10 μg/ml), goat anti-mouse IgG-HRP, OD450. Background: An ELISA detects its analyte on a solid surface through an enzyme-linked reagent.

Some results are limits rather than exact numbers.

B1: 小鼠抗人Calcitonin单克隆抗体 (杂交瘤细胞株7D5, CGMCC No.6919 产生) (antibody, part only; not given: light chain variable region, V domains shown, part only)
VH: LFCQTAGVHSEVQLQQSGPELVKPGTSVKMSCKASGYTFTSYVIHWVKQKPGQGLEWIGYINPYNVGTKYNEKFRDKATLTSDKSSNTAYMELSSLTSEDFAVYYCVRS
B1: the ELISA滴度 (dilution (1:x)) in assay [1] was greater than 100000; in assay [2], greater than 10000.

The values are drawn from patent CN105483091A.
